Test results from patent US20100260765A1 (AstraZeneca / MedImmune, published 2010).

B1: 1G6 (antibody, V domains shown)
VH: EVQLLESGGGLVQPGGSLRLSCAASGFTFSSYAMSWVRQAPGKGLEWVSAISGGGGNTYYADSVKGRFTISRDNSKNTLYLQMNSLRAEDTAVYYCSKVATDYWGQGTLVTVSS
VL: QPVLTQSSSASASLGSSVKLTCTLSSGHSSYIIAWHQQQPGKAPRYLMKLEGSGSYNKGSGVPDRFSGSSSGADRYLTISNLQFEDEADYYCETWDSYTVVFGGGTKLTVL
notes: Fully human mAb from XenoMouse hybridoma, tested as hybridoma supernatant
B2: 21A1 (antibody, V domains shown)
VH: QVQLVESGGGLVKPGGSLRLSCAASGFTFSDYYMSWIRQAPGKGLEWVSYISNSGITIYYADSVKGRFTISRDNAKNSLYLQMNSLRAGDTAVYYCAREEWYSSRWYRNFDYWGQGTLVTVSS
VL: DIQMTQFSSSLSASVGDRVTITCRASQSISRYLNWYQQKPGKAPKLLIYAASSLQSGVPSRFNGSGSGTDFTLTISSLQPEDFATYYCQQSYSAPLTFGGGTKVEIK
notes: as for B1
B3: 21H6 (antibody, V domains shown)
VH: QVQLVESGGGLVKPGGSLRLSCAASGFTFSDYYMSWIRQAPGKGLEWVSYISNSGITIYYADSVKGRFTISRDNAKNSLYLQMNSLRAGDTAVYYCAREEWYSSRWYRNFDYWGQGTLVTVSS
VL: DIQMTQFSSSLSASVGDRVTITCRASQSISRYLNWYQQKPGKAPKLLIYAASSLQSGVPSRFNGSGSGTDFTLTISSLQPEDFATYYCQQSYSAPLTFGGGTKVEIK
notes: as for B1
B4: 21H9 (antibody, V domains shown)
VH: QVPLVESGGGVVQPGRSLRLSCAASGFTFSSYGMHWVRQAPGKGLEWVAVIWYDGSNKYYADSVQGRFTISRDNSKNTLYLQMNSLRAEDTAVYYCARGVTMVRGLIIARYYYGLDVWGQGTTVTVSS
VL: DIVMTQTPLSSPVTFGQPASISCRSSQSLVHSDGNTYLSWLQQRPGQPPRLLIYKISNRFFGVPDRFSGSGAGTDFTLKISRVEAEDVGLYYCMQSTQFPLTFGGGTKVEIK
notes: as for B1
B5: 30D7 (antibody, V domains shown)
VH: QVPLVESGGGVVQPGRSLRLSCAASGFTFSSYGMHWVRQAPGKGLEWVAVIWYDGSNKYYADSVKGRFTISRDNSKNTLYLQMNSLRAEDTAVYYCARGVTMVRGVIIARYYYGLDVWGQGTTVTVSS
VL: DIVMTQTPLSSPVTLGQPASISCRSSQSLVHSDGNTYLSWLQQRPGQPPRLLIYKISNRFFGVPDRFSGSGAGTDFTLKIGRVEAEDVGLYYCMQSTQFPLTFGGGTKVEIK
notes: as for B1
B6: 22B8 (antibody, V domains shown)
VH: QLQLQESGPGLVKPSETLSLTCTVSGGSISSRYYYWGWVRQPPGKGLEWIGTIYYSGHTYYNPSLKTRVTISVDTSKNQFSLKLISVTAADTAVYYCATQQLVLYYFDFWGQGTLVTVSS
VL: EIVLTQSPGTLSLSPGERAALSCRASQSISSSYLAWYQQRPGQAPRLLIYGASSRATGIPDRFNGSGSGTDFTLTISRLEPEDFAVYYCQQFGSSITFGQGTRLEIK
notes: as for B1
B7: 30A1 (antibody, V domains shown)
VH: QLQLQESGPGLVKPSETLSLTCTVSGGSISSPNYYWGWIRQPPGKGLEWIGTIYYSGNTFYNPSLKSRVTISVDTSKNQFSLKLSSVTAADTAVYYCATQQLVLYYFDFWGQGTLVTVSS
VL: EIVLTQSPGTLSLSPGKRAALSCRASQSISSSYLAWYQQKPGQAPRLLIYGASSRATGIPDRFNGSGSGTDFTLTISRLEPEDFAVYYCQQLGSSITFGQGTRLEIK
notes: as for B1
B8: 24B3 (antibody, V domains shown)
VH: EVQLVESGGGLVKPGGSLRLSCAASGFTFSTYSMNWVRQAPGKGLEWVSFISGRSSYIYYADSVKGRFTISRDNAKNSLYLQMNSLRAEDTAVYYCSKDDWFEELWGQGTLVTVSS
VL: DIQMTQSPSSLSASVGDRVTITCRASQGIRSDLGWYQQKPGKAPKRLIYATSSLQSGVPSRFSGSGSGTEFTLTISSLQPEDFATYYCLQHNRYPWTFGQGTKVEIK
notes: as for B1

What was measured:
[1] = molecular target: T1, soluble KDR extracellular domain (ECD) (Calbiochem) (human, UniProt P35968 20-764); assay: High Antigen ELISA, KDR coat 500 ng/mL, supernatant 1:225
T1 construct: extracellular domain; Bought protein; also called KDR-ECD; VEGF Receptor 2 D1-7, Cat. #676490
Procedure: (§1) ELISA plates were coated with a greater amount of KDR (at 500 ng/mL) in comparison with the Limited Antigen Quantitation assay described below. Sample containing antibody (Ab) was titrated on the KDR-coated ELISA plates and was incubated overnight at 4° C. to allow Ab binding to approach equilibrium. Titration of Ab in sample covered a dilution range of 1:25 to 1:18,225. A standard curve of KDR-specific antibody of known concentration was used to define the linear range of the assay. Data within the linear range were used to derive the relative concentration of KDR-specific Ab in each titrated sample. The high KDR concentration and the overnight incubation limited the effect of Ab affinity, allowing quantitation of the relative amount of KDR-specific Ab present in each sample.

[2] = molecular target: T1, soluble KDR extracellular domain (ECD) …; assay: High Antigen ELISA, KDR coat 500 ng/mL, supernatant 1:675
Procedure: as §1

[3] = molecular target: T1, soluble KDR extracellular domain (ECD) …; assay: Limited Antigen ELISA, KDR coat 3.125 ng/mL, supernatant 1:25
Procedure: (§2) Samples containing one concentration of antibody (Ab) (1:25 dilution) were incubated overnight to allow Ab binding to approach equilibrium. The low antigen concentration limited the effect of antibody concentration, allowing ranking of the antibodies based on their relative affinity.

[4] = molecular target: T1, soluble KDR extracellular domain (ECD) …; assay: Limited Antigen ELISA, KDR coat 6.25 ng/mL, supernatant 1:25
Procedure: as §2

[5] = molecular target: T1, soluble KDR extracellular domain (ECD) …; assay: High Antigen ELISA, KDR coat 500 ng/mL, supernatant 1:18,225
Procedure: as §1

[6] = molecular target: T1, soluble KDR extracellular domain (ECD) …; assay: Limited Antigen ELISA, KDR coat 12.5 ng/mL, supernatant 1:25
Procedure: as §2

[7] = molecular target: T1, soluble KDR extracellular domain (ECD) …; assay: High Antigen ELISA, KDR coat 500 ng/mL, supernatant 1:75
Procedure: as §1

[8] = molecular target: T1, soluble KDR extracellular domain (ECD) …; assay: High Antigen ELISA, KDR coat 500 ng/mL, supernatant 1:2025
Procedure: as §1

[9] = molecular target: KDR endogenously expressed on human umbilical vein endothelial cells (HUVEC) (human, UniProt P35968 20-1356); assay: cell-based or functional assay
[10] = molecular target: T1, soluble KDR extracellular domain (ECD) …; assay: Limited Antigen ELISA, KDR coat 25 ng/mL, supernatant 1:25
Procedure: as §2

[11] = molecular target: T1, soluble KDR extracellular domain (ECD) …; assay: High Antigen ELISA, KDR coat 500 ng/mL, supernatant 1:25
Procedure: as §1

[12] = molecular target: T1, soluble KDR extracellular domain (ECD) …; assay: High Antigen ELISA, KDR coat 500 ng/mL, supernatant 1:6075
Procedure: as §1

[13] = molecular target: T1, soluble KDR extracellular domain (ECD) …; assay: Limited Antigen ELISA, KDR coat 50 ng/mL, supernatant 1:25
Procedure: as §2

T1 sequence (P35968 20-764): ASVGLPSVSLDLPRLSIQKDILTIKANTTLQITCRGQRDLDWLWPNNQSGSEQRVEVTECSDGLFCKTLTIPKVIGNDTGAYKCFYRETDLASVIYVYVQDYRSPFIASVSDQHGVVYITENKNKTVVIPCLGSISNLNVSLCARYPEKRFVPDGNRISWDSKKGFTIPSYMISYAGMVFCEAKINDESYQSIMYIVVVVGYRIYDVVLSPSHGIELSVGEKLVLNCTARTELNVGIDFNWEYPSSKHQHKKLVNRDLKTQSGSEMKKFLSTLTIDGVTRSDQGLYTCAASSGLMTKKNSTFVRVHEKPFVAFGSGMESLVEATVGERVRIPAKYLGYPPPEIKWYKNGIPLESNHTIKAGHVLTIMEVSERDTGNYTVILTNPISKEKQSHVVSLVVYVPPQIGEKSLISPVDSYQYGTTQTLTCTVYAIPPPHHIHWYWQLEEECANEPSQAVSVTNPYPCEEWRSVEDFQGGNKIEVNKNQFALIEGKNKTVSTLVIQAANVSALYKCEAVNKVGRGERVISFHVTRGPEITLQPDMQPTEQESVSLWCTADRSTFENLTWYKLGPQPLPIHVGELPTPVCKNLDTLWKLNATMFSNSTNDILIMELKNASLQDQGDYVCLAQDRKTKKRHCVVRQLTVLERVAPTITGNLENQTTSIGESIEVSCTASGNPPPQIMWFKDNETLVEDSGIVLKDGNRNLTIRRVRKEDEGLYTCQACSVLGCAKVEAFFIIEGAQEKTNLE
Sequence of KDR endogenously expressed on human umbilical vein endothelial cells (HUVEC) (P35968 20-1356): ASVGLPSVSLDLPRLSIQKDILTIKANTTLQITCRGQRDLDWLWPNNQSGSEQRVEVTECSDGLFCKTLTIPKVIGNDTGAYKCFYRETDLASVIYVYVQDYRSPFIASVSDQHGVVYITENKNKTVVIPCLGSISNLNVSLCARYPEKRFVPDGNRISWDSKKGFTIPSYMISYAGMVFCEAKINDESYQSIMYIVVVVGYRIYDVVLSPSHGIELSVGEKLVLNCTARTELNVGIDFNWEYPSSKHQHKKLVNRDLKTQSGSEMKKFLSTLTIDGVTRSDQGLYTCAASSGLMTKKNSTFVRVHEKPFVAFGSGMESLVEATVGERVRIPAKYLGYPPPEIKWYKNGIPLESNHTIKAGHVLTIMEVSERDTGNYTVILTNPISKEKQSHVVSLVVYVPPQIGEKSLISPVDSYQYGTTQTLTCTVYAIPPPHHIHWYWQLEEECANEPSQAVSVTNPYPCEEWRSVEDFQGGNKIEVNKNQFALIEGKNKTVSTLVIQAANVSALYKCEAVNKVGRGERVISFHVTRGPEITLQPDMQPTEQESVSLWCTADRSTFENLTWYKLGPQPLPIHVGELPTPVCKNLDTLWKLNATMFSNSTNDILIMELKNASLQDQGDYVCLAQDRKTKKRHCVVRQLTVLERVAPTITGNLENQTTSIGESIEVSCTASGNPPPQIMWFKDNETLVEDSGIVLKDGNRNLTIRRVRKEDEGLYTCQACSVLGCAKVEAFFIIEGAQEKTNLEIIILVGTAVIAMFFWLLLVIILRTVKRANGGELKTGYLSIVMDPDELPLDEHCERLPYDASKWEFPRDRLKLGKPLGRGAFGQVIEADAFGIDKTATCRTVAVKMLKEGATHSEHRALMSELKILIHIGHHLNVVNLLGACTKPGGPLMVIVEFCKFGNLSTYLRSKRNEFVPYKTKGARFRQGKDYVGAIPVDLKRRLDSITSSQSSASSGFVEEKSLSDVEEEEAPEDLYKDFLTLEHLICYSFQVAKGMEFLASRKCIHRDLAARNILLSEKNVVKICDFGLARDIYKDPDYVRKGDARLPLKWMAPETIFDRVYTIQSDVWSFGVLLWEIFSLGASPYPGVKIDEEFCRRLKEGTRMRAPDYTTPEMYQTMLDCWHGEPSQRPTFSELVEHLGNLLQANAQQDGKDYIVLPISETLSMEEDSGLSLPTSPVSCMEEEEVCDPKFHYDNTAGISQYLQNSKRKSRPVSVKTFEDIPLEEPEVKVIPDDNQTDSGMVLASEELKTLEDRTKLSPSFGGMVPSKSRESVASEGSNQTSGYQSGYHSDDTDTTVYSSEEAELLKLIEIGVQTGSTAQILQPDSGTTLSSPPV

Binder	ELISA reading [1]	ELISA reading [2]	ELISA reading [3]	ELISA reading [4]	ELISA reading [5]	ELISA reading [6]	ELISA reading [7]	ELISA reading [8]	VEGF-E-mediated Survival % Inhibition (Average) [9]	VEGF-E-mediated Survival % Inhibition (n = 1) [9]	VEGF-E-mediated Survival % Inhibition (n = 2) [9]	ELISA reading [10]	ELISA reading [11]	ELISA reading [12]	ELISA reading [13]
B1	4.49	2.24	0.12	0.2	0.26	0.32	6	0.69	2%	-2%	6%	0.65	6	0.34	1.38
B2	4.14	3.36	0.23	0.38	0.25	0.81	4.43	1.66	42%	45%	40%	1.47	4.45	0.56	2.65
B3	5.57	4.02	0.15	0.23	0.54	0.52	4.19	2.91	55%	56%	53%	0.97	6	1.17	1.83
B4	3.41	1.56	0.22	0.39	0.12	0.82	4.34	0.7	-1%	-3%	1%	1.46	6	0.26	2.28
B5	6	4.24	0.27	0.48	0.82	0.79	5.09	2.79	-24%	-27%	-22%	1.51	4.66	1.02	2.93
B6	6	3.49	0.21	0.42	0.2	0.91	6	1.27	55%	57%	53%	1.84	6	0.31	3.36
B7	6	4.28	0.15	0.27	1.11	0.5	4.78	3.37	58%	58%	59%	0.87	4.52	1.58	1.77
B8	1.16	0.79	0.07	0.08	0.08	0.12	1.58	0.31	66%	65%	66%	0.21	2.33	0.13	0.38
